The target in the assay is hIL-12 receptor signaling complex (hIL-12Rβ1 and hIL-12Rβ2) (human) (UniProt P42701). In words: cell-based or functional assay.
hIL-12 receptor signaling complex (hIL-12Rβ1 and hIL-12Rβ2) (human), sequence (Q99665 24-862, chain 2 of 2, other chains not shown): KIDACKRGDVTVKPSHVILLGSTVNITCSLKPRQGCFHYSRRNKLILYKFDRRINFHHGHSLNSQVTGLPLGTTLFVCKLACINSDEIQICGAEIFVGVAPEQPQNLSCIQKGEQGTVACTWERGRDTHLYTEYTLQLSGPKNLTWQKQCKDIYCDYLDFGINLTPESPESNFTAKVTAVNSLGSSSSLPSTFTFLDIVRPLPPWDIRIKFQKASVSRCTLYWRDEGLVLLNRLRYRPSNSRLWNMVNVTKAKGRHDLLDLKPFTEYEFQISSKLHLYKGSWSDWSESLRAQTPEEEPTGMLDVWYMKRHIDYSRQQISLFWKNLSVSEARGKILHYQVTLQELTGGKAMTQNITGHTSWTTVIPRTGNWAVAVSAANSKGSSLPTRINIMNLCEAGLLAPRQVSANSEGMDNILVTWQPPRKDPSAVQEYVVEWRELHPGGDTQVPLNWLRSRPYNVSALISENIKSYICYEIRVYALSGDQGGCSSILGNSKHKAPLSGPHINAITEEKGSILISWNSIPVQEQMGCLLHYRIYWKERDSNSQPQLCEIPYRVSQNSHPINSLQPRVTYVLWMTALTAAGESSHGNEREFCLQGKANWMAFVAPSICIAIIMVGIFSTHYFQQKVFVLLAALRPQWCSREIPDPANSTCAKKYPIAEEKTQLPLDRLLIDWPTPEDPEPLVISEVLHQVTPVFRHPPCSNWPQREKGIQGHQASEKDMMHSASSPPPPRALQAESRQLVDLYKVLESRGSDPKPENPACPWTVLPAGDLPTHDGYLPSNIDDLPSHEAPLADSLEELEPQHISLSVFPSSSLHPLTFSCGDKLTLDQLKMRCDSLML

“human IL12 mutein of the F82X panel printed as E81A/F82F/K106K in row r9 of Tables 10 and 11 (label printed a second time in r19 with other values) (ligand)” showed a pSTAT4 [%+] EC50, CD8+ T Cells of 1.86 nM; a pSTAT4 [%+] EC50, CD56hi NK Cells of 2.27 nM; a pSTAT4 [%+] Emax, CD8+ T Cells of 75.9 %+; a pSTAT4 [%+] Emax, CD56hi NK Cells of 78.2 %+. The substance further displayed a pSTAT4 [gMFI] EC50, CD8+ T Cells of 6.65 nM; a pSTAT4 [gMFI] EC50, CD56hi NK Cells of 9.12 nM; a pSTAT4 [gMFI] Emax, CD8+ T Cells of 80100 gMFI; a pSTAT4 [gMFI] Emax, CD56hi NK Cells of 21600 gMFI.

On to “human IL12 mutein, hIL-12p40 E81A, F82S with hIL-12p35-8X His (from UniProt P29460 23-328; P29459 23-219) (ligand)”, for which the pSTAT4 [%+] EC50, CD8+ T Cells was found to be 0.86 nM; the pSTAT4 [%+] EC50, CD56hi NK Cells amounted to 1.4 nM; the pSTAT4 [%+] Emax, CD8+ T Cells worked out at 80.5 %+; the pSTAT4 [%+] Emax, CD56hi NK Cells amounted to 86.1 %+. Further, the pSTAT4 [gMFI] EC50, CD8+ T Cells turned out to be 3.84 nM; the pSTAT4 [gMFI] EC50, CD56hi NK Cells came to 6.29 nM; the pSTAT4 [gMFI] Emax, CD8+ T Cells was 95900 gMFI; the pSTAT4 [gMFI] Emax, CD56hi NK Cells is 26200 gMFI.

Values taken from patent US20250388640A1.
